According to US7700353B2, “Compositions and methods for inducing apoptosis in tumor cells” (E-P Therapeutics, Inc., priority 1998, dated 2010):

Tests used:
[1] = system: HT-29 or MDA-MB-231 cells; test: Colony formation assay in semi-solid medium (Ea-4 peptide); format: cell-based, human; details: increasing concentrations (0.4 to 1.6 μM), 1.25% FBS, vs control protein
Experimental: Colony formation assays were conducted following the method described by Yang (1975). About 2×10^4 of HT-29 (colon cancer cells) or MDA-MB-231 cells (aggressive breast cancer cells) at log phase were plated in their respective basal medium containing 1.25% FBS and 0.5% purified agar (Difco laboratories), and supplemented with various concentrations (0.4 to 1.6 µM) of the recombinant rainbow trout Ea-4 peptide, or the same amount of the control protein, in 6-well culture chambers. After the medium is solidified, each well is overlaid with 1 mL of the basal medium (containing 1.25% FBS) supplemented with same concentration of the trout Ea-4 peptide. The plates were incubated at 37° C. in a humidified incubator with 5% CO2 and examined daily under an inverted microscope for 2-3 weeks. Colonies were observed under an Olympic inverted microscope equipped with phase contrast objective lenses (final magnification: 40×). Colonies with sizes ≥50 µm were scored. The viability of cells at the conclusion of the experiment was confirmed by dye extrusion assay with tryptan blue. The assay was conducted two times.

MDA-MB-231 cells = test: Soft agar colony formation of Ea-4 cDNA transfectants; format: cell-based, human; details: cells transfected with Ea-4-peptide cDNA (clones E9 and E15)
Excerpt: Two gene constructs, CMV-IGF-1-sp-Ea-4-cDNA-IRES-EGFP and CMV-IRES-EGFP were used in the transfection studies. The first construct (FIG. 9A) contained Ea-4 peptide cDNA (with a signal peptide sequence derived from hlGF-I), a ribosome re-entry site (IRES) and an enhanced green fluorescence protein (EGFP) marker gene. […] The expression of both gene constructs was driven by a promoter from CMV. Vectors containing the recognized control sequences and marker gene are available from commercial sources (CLONTECH, Palo Alto, Calif.).
Transfection of the cells was accomplished as follows. MDA-MB-231 cells were cultured in F12/DMEM supplemented with 10% FBS and 10 ng/ml of insulin to 90% confluence. About 5×10^6 cells were harvested and resuspended in 1 mL of serum-free F12/DMEM containing 20 µg of un-linearized constructs. The cells were electroporated in a BRL Cell-Porator using the following settings: low .OMEGA., 1180 micro Faraday (µF) capacitance, and two pulses at 200 volts. Following electroporation, cells were resuspended in 12 mL of fresh growth medium and seeded into a 6-well plate to recover. Permanent transfectants expressing green fluorescence protein (GFP) were enriched in a medium containing neomycin (G418) at 1 mg/mL for ten days and followed with 500 µg/mL for continuous maintenance. […]

MDA-MB-231(C) = test: Induction of apoptosis (TUNEL assay); format: cell-based, human; details: about 1.5 μM, two to three days
Experimental: FIG. 23 depicts induction of apoptosis in MDA-MB-231 cells by rtEA4-peptide. MDA-MB-231 cells were treated wit control protein or rtEa4-peptide (about 1.5 μM) for two days, and three days, and were then subjected to TUNEL assay. (A) Treatment with rtEa4-peptide for two days; (B) Treatment with rtEa-4-peptide for three days.
FIG. 24 depicts the effect of rtEa4-peptide on induction of apoptosis in MDA-MB-231 cells treated with rtEa4-peptide. (A) Detection of apoptosis by TUNEL assay; (B) Detection of apoptosis y detecting the induction of the activated caspase-3 activity. MDA-MB-231 cells were treated with about 1.5 μM of rtEa4-peptide for about 48 hours, fixed and subjected to TUNEL assay or stained with anti-human activated caspase-3 serum conjugated with rhodamine. Hydrogen peroxide (H2O2), 0.5 mM, was used to induce apoptosis as a positive control.

[2] = system: cultured BALB/3T3 fibroblast; details: recombinant peptides; cited from earlier work
[3] = system: ovarian cancer cells (SKOV-3); test: Apoptosis observed under microscope; format: cell-based, human; details: 0.1-3.4 μM, 4 hours
Experimental: FIG. 22 depicts apoptosis in ovarian cancer cells (SKOV) induced by various amounts of rtEa4-peptide. SKOV cells were treated with various amounts (0.1-3.4 μM) for 4 hours and observed under a microscope. Arrows indicate apoptotic cells.
Killing of cancer cells by E-peptide could be the consequence of apoptosis or necrosis. To differentiate these two possibilities, MDA-MB-231 (C) cells were grown in culture in the presence of about 1.5 μM of trout Ea4-peptide. After about two hours of incubation the cells were observed under a microscope. […] FIG. 22 presents the results of the effect of trout Ea4-peptide on induction of apoptosis in ovarian cancer cells (SKOV-3).

HT1080 cells = test: Matrigel invasion assay; format: cell-based, human; details: for # invaded cells/view (MIC): Matrigel insert; for # invaded cells/view (MIC) / # invaded cells/view (CIC): 24 hours; for # invaded cells/view (CIC): control insert
Experimental: Invasion assays were conducted in BIOCOAT MATRIGEL invasion chambers following the procedure provided by Becton Dickinson Labware (Bedford, Mass.; 40480 and 40481 guidelines). According to these procedures, 1×10^6 of HT1080 cells in DMEM supplemented with 1.25% FBS, with Ea-4 peptide (0.17 µM and 0.34 µM), or the same amount of the control protein, were plated in each insert of the Matrigel or control invasion chambers. The inserts were placed in the respective chambers containing DMEM medium supplemented with 10% FBS, and the chambers were incubated at 37° C. under a humidified atmosphere of 5% CO2 for 24 hours. After removal of the non-invaded cells with cotton swabs, the invaded cells on the other side of the membranes were stained with the Diff-Quick T stain (Becton Dickinson Labware, Bedford, Mass.) and observed under an Olympic inverted microscope (magnification, 200×). Control proteins were prepared from E. coli cells carrying the expression plasmid without the Ea-4-peptide gene by the same purification method (Tian et al., 1999). The assay was repeated three times.

B1: rtEa-4: recombinant Ea-4 peptide of rainbow trout pro-IGF-I, 74 amino acid residues (SEQ ID NO: 2) (protein)
chain: RSVRAQRHTDMPRTPKVSTAVQNVDRGTERRTAQHPDKTKTKKKPLSGHSHPSCKEVHQKNSSRGNTGGRNYRM
modifications: Oncorhynchus mykiss
Q: Which results are given for B1?
A: colonies developed in soft agar medium [1]: fewer colonies; colony formation activity (MDA-MB-231 cells): abolished; TUNEL staining (MDA-MB-231(C)): TUNEL staining positive; mitogenic activity [2]: possess mitogenic activity; apoptosis (microscopy) [3]: dose-dependent induction of apoptosis; % Invasion (HT1080 cells; 0.17 μM): 19%; % Reduction of invasion (HT1080 cells; 0.17 μM): 52%; # invaded cells/view (MIC) (HT1080 cells; 0.17 μM): 30 ± 5 cells/view; # invaded cells/view (CIC) (HT1080 cells; 0.17 μM): 157 ± 6 cells/view; % Invasion (HT1080 cells; 0.34 μM): 15%; % Reduction of invasion (HT1080 cells; 0.34 μM): 62%; # invaded cells/view (MIC) (HT1080 cells; 0.34 μM): 24 ± 1 cells/view; # invaded cells/view (CIC) (HT1080 cells; 0.34 μM): 157 ± 6 cells/view; invasive activity (HT1080 cells; 0.17 and 0.34 μM): dose-dependent reduction
